Like-named read-outs stand apart in the source and are kept apart here.
What was measured:
[1] = biological target: tRNA-guanine transglycosylase (TGT) (Escherichia coli) (UniProt P0A847); settings: urea PAGE shift
[2] = biological target: tRNA-guanine transglycosylase (TGT) (Escherichia coli) (UniProt P0A847); settings: urea PAGE shift; best of composite hairpins

Chain of tRNA-guanine transglycosylase (TGT) (Escherichia coli) (P0A847 whole entry): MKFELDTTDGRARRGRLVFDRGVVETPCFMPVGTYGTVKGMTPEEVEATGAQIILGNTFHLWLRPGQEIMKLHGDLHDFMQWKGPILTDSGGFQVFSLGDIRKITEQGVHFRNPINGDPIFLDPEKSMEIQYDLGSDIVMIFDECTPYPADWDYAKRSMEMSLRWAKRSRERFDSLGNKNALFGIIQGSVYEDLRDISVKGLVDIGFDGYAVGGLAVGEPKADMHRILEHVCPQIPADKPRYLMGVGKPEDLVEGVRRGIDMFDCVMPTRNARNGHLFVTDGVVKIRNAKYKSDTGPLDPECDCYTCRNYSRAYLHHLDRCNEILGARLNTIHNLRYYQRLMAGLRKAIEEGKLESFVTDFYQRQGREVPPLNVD

Substance	activity [1] [% labeled]	further results
Tyr 17 nt DNA hairpin	–	activity ([1]; printed as ~-5%): 5 % labeled
Asp 17 nt DNA hairpin	40	–
His stem-Asp loop hairpin	–	activity [2]: > 50 % labeled
His 17 nt DNA hairpin	40	–

Reference: US20240247250
